B1: TPR t1 (parent)
chain: GACCAAUCUGCCCUCAGAGCUCGAGAACAUCUUCGGAUGCAGAGGAGGCAGGCUUCGGUGGCGCGAUAGCGCCAACGUCCUCAACCUCCAAUGCAUCCCACCACAUGAUGAUGCCUGAAGAGCCUUGGUUUUUUG

Variants of: B1
Assay: polymerase ribozyme fitness, log enrichment relative to wild type (log ratio); higher = more active; in vitro selection for triplet polymerase activity
Procedure, shortened: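 Fitness compares each genotype's enrichment to that of the wild type on a logarithmic scale, averaging replicates with inverse-variance weights. The logarithm is base 2. Enrichment came from Illumina sequencing of input and output libraries after one triplicate round of in vitro selection, which included frozen incubation at −7 °C, of PCR-built, transcribed mutant libraries of each subunit of a heterodimeric triplet polymerase ribozyme. Only genotypes with ≥10 input reads and ≥1 read per output were kept.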

Variant	polymerase ribozyme fitness (log ratio)
GACCAAUCUGCCCUCAGAGCUCGAGAACAUCUUCGGAUGCAGAGGAGGCAGGCUUCGGUGGCGCGAUAGCUCCAACGUCCUCAACCUCCAAUGCAUCCUACCACAUGAUGAUGCCUGAAGAGCCUUGGUUUUUUG [G71U C99U]	-4.69
GACCAAUCUGCCCUCAGAGCUCGAGAACAUCUUCGGAUGCAGAGGAGGCAGGCUUCGGUGGCGCGAUAGCCCCAACGUCCUCAACCUCCGAUGCAUCCCACCACAUGAUGAUGCCUGAAGAGCCUUGGUUUUUUG [G71C A90G]	-0.94
GACCAAUCUGCCCUCAGAGCUCGAGAACAUCUUCGGAUGCAGAGGAGGCAGGCUUCGGUGGCGCGAUAGCCCCAACGUCCUCAACCUCCCAUGCAUCCCACCACAUGAUGAUGCCUGAAGAGCCUUGGUUUUUUG [G71C A90C]	-3.67
GACCAAUCUGCCCUCAGAGCUCGAGAACAUCUUCGGAUGCAGAGGAGGCAGGCUUCGGUGGCGCGAUAGCCCCAACGUCCUCAACCUCUAAUGCAUCCCACCACAUGAUGAUGCCUGAAGAGCCUCGGUUUUUUG [G71C C89U U126C]	-2.71
GACCAAUCUGCCCUCAGAGCUCGAGAACAUCUUCGGAUGCAGAGGAGGCAGGCUUCGGUGGCGCGAUAGCUCCAACGUCCUCAACCUCCUAUGCAUCCCACCACAUGAUGAUGCCUGAAGAGCCUUGGUUUUUUG [G71U A90U]	-1.78
GACCAAUCUGCCCUCAGAGCUCGAGAACAUCUUCGGAUGCAGAGGAGGCAGGCUUCGGUGGCGCGAUAGCCCCAACGUCCUCAACCUCCAAUACAUCCCACCACAUGAUGAUGCCUGAAGAGCCUUGGUUUUUUG [G71C G93A]	-1.77
GACCAAUCUGCCCUCAGAGCUCGAGAACAUCUUCGGAUGCAGAGGAGGCAGGCUUCGGUGGCGCGAUAGCUCCAACGUCCUCGACCUCCACUGCACCCCACCACAUGAUAAUGCCUGAAGAGCCUUGGUUUUUUG [G71U A83G A91C U96C G110A]	-6.02
GACCAAUCUGCCCUCAGAGCUCGAGAACAUCUUCGGAUGCAGAGGAGGCAGGCUUCGGUGGCGCGAUAGCUCCAACGUCCUCAACCUCCAAUGCAUCCCAGCACAUGAUGAUGCCUGAAGAGCCUUGGUUUUUUG [G71U C101G]	-1.83
GACCAAUCUGCCCUCAGAGCUCGAGAACAUCUUCGGAUGCAGAGGAGGCAGGCUUCGGUGGCGCGAUAGCUCCAACGUCCUCAACCUCCAAUGCAUCCCAUCACAUGAUGAUGCCUGAAGAGCCUUGGUUUUUUG [G71U C101U]	-0.379
GACCAAUCUGCCCUCAGAGCUCGAGAACAUCUUCGGAUGCAGAGGAGGCAGGCUUCGGUGGCGCGAUAGCUCCAACGUCCUCAACCUCCAAUGCAUCCCAACACAUGAUGAUGCCUGAAGAGCCUUGGUUUUUUG [G71U C101A]	-1.24
GACCAAUCUGCCCUCAGAGCUCGAGAACAUCUUCGGAUGCAGAGGAGGCAGGCUUCGGUGGCGCGAUAGCUCCAACGUCCUAAACCUCCAAUGCAUCCCACCACAUGAUGAUGCCAGAAGAGCCUUGGUUUUUUG [G71U C82A U116A]	-4.01
GACCAAUCUGCCCUCAGAGCUCGAGAACAUCUUCGGAUGCAGAGGAGGCAGGCUUCGGUGGCGCGAUAGCCCCAACGUCCUCAACCUCCAAUGCAUCCCACCACAUGAUGAAGCCUGAAGAGCCUUGGUUUUAUG [G71C U112A U133A]	0.204
GACCAAUCUGCCCUCAGAGCUCGAGAACAUCUUCGGAUGCAGAGGAGGCAGGCUUCGGUGGCGCGAUAGCCCCAACGUCCUCAACCUCCAAUGCAUCCCACCACAUGAUGAUGCCUGAAGUGCCUUGGUUUUUUG [G71C A121U]	0.296
GACCAAUCUGCCCUCAGAGCUCGAGAACAUCUUCGGAUGCAGAGGAGGCAGGCUUCGGUGGCGCGAUAGCCCCAACGUCCCCAACCUCCGAUGCAUCCCACCACAUGAUGAUGCCUGAAGAGCCUUGGUUUUUUG [G71C U81C A90G]	-2.36
GACCAAUCUGCCCUCAGAGCUCGAGAACAUCUUCGGAUGCAGAGGAGGCAGGCUUCGGUGGCGCGAUAGCUCCAACGUCCUCAACCUCCAGUUCAUCCCACCACAUGAUGAUGCCUGAAGAGCCUUGGUUUUUUG [G71U A91G G93U]	-2.17
GACCAAUCUGCCCUCAGAGCUCGAGAACAUCUUCGGAUGCAGAGGAGGCAGGCUUCGGUGGCGCGAUAGCUCGAACGUCCUCAACCUCCUAUGCAUCCCACCACAUGAUGAUGUCUGAAGAGCCUUGGUUUUUUG [G71U C73G A90U C114U]	-7.06
GACCAAUCUGCCCUCAGAGCUCGAGAACAUCUUCGGAUGCAGAGGAGGCAGGCUUCGGUGGCGCGAUAGCUCCAACGUCCUGAACCUCCAAUGCAUCCCACCACAUGAUGAUGCCUGAAGAGCCUUGGUUUUUUG [G71U C82G]	-1.17
GACCAAUCUGCCCUCAGAGCUCGAGAACAUCUUCGGAUGCAGAGGAGGCAGGCUUCGGUGGCGCGAUAGCUCCAACGUCCUCAACCUUCAAUGCAUCCCCCCACAGGAUGAUGCCUGAAGAGCCUUGGUUUUUUG [G71U C88U A100C U106G]	-5.6
GACCAAUCUGCCCUCAGAGCUCGAGAACAUCUUCGGAUGCAGAGGAGGCAGGCUUCGGUGGCGCGAUAGCCCCAACGUCCUCAACCUCCAAUGCAUCCCACCUCAUGAUGAUGCAUAAAGAGCCUUGGUUUUUUG [G71C A103U C115A G117A]	-5.57
GACCAAUCUGCCCUCAGAGCUCGAGAACAUCUUCGGAUGCAGAGGAGGCAGGCUUCGGUGGCGCGAUAGCUCCAACGUCCUCAACCUCCAAUGCAUCCCACCAAAUGAUGAUGCCUGAAGAGCCUUGGUUUUUUG [G71U C104A]	-1.81
GACCAAUCUGCCCUCAGAGCUCGAGAACAUCUUCGGAUGCAGAGGAGGCAGGCUUCGGUGGCGCGAUAGCUCCAACGUCCUCAACCUUCAAUGCAUCCCACCACAUGAUGAUGCCUGAAGAGCCUUGGUGGUUUG [G71U C88U U130G U131G]	-2.2
